Reference: US20190330316A1 (PROTHENA BIOSCIENCES, published 2019)
Ends that are not written are not given here.

Legend:
[1] = target: T1, biotinylated peptide spanning amino acid residues 64-78 of SEQ ID NO:3 (human, also: biotinylated, position not given here); assay: ELISA, biotinylated peptides on streptavidin plate
T1 peptide: VTQARMVSKSKDGTG
Method: (§1) A range of overlapping biotinylated peptides spanning the entire 383aa 4RON human tau protein were used for mapping the murine 16G7 antibody. Additional peptides were used to model potential post-translational modifications of the C- and N-terminal ends of the protein.
(§2) Biotinylated peptides were bound to separate wells of a streptavidin-coated ELISA plate. The plate was blocked and treated with murine 16G7, followed by incubation with a horseradish peroxidase-conjugated anti-mouse antibody. After thorough washing, OPD was applied to the plate and allowed to develop. The plate was read at 450 nm absorbance. Background subtraction was performed with absorbance values from wells containing no primary antibody, and a threshold for positive binding was set to 0.2 absorbance units.

[2] = target: T2, biotinylated peptide spanning amino acid residues 55-69 of SEQ ID NO:3 (human, also: biotinylated, position not given here); assay: ELISA, biotinylated peptides on streptavidin plate
T2 peptide: SLEDEAAGHVTQARM
Method: as §1, §2

[3] = target: T3, 4R0N human tau (383 amino acids) (human, UniProt P10636 1-758, radio-iodinated (125I) in the precipitation screen); assay: precipitation of 125I-labeled tau by hybridoma supernatants
T3 construct: Purified from SF9 cells infected with a tau baculovirus construct; also called 4RON human tau; 4R0N tau
T3 sequence (P10636 other isoform, or with tags, fused parts or gaps limits assumed): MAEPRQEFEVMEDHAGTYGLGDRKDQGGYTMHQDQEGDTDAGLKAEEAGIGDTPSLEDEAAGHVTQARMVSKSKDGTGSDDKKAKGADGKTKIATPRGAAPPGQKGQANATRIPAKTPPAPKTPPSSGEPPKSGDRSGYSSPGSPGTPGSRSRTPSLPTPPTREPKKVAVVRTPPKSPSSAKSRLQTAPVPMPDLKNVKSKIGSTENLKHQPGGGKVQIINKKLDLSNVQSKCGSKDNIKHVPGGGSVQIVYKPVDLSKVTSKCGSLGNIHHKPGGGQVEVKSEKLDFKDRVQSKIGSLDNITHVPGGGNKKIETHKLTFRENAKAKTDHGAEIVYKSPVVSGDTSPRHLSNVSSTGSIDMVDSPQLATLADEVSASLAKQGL
Method: Monoclonal antibody 16G7 was prepared according to a modification of the method of Kohler and Milstein (G. Kohler and C. Milstein (1975) Nature 256:495-497). Human tau containing all 4 microtubule binding repeats, and lacking the N-terminal splice variants (4R0N tau, 383 amino acids) was used in all injections and screening assays. Tau was purified from SF9 cells infected with a tau-containing baculovirus construct (J. Knops et al. (1991) J Cell Biol 115(5):725-33). Six week old ALI mice were injected with 100 μg of purified tau at two week intervals. Tau was emulsified in complete Freund's adjuvant for the first immunization and in incomplete Freund's adjuvant for all subsequent immunizations. Serum samples were taken three days after the third injection to assess the titer of these animals. The highest titer mouse was injected intravenously with 100 μg of tau in 500 μL of PBS two weeks after receiving its third injection. The myeloma fusion occurred three days later using SP2/0 as the fusion partner. Supernatants from wells containing hybridoma cells were screened for their ability to precipitate ¹²⁵I-labeled tau. Tau was radio-iodinated using immobilized glucose oxidase and lactoperoxidase according to the manufacturer's instructions (Bio-Rad). […] The isotypes of 16G7 was determined to be gamma 1 kappa.

Measured: binding result

B1: murine 16G7 monoclonal antibody (antibody, V domains shown)
VH: QVQLQQPGSVLVRPGASVKLSCKASGYTFTSSWIHWAKQRPGQGLEWIGEIYPNSGNTNYNEKFKGKATLTVDISSSTAYVDLTSLTSEDSAVYYCARLGWLIPLDYWGQGTTLIVSS
VL: DIVLSQSPSSLAVSVGEKVTMSCKSSQSLLDGNDQKNYLAWYQQKPGQSPKLLMYWASTRESGVPDRFTGSGSGTDFTLTISSLKAEDLAVYYCQQFYDYPWTFGGGTKLEIKR
notes: also called mouse 16G7; m16G7
binds: all assays above
